Test results: patent publication US20180086826A1

What was measured:
[1] = biological target: meditope-enabled Trastuzumab Fab (original, Ile83); assay: SPR, 37 °C, immobilized memAb
[2] = biological target: I83E trastuzumab memAb Fab; assay: SPR, 37 °C
[3] = biological target: I83E trastuzumab memAb Fab; assay: SPR, 37 °C; against the original meditope on the original trastuzumab memAb Fab
[4] = biological target: meditope-enabled Trastuzumab Fab (original, Ile83); assay: as above
HER2 = HER2 (UniProt P04626); assay: SPR, immobilized HER2, 25 °C
[5] = biological target: meditope-enabled Trastuzumab Fab (original, Ile83); assay: SPR, 37 °C

**Q.** With 5-diphenyl meditope (peptide) as the substance, how does the Kd [1] read?
**A.** 41 nM

**Q.** And the τ1/2 [1]?
**A.** 60 s

**Q.** What about the Kd [2] of the same substance?
**A.** 0.86 nM

**Q.** What about the τ1/2 [2] of the same substance?
**A.** 2400 s

**Q.** What about the fold increase in affinity [3] of the same substance?
**A.** 1160 fold

**Q.** And the fold increase in affinity [4]?
**A.** 25 fold

**Q.** How did the Kd (HER2) turn out when I83E trastuzumab memAb Fab was run?
**A.** 0.044 nM

**Q.** How did the Kd [1] turn out when original meditope (peptide) was run?
**A.** 1000 nM

**Q.** What about the Kd [2] of the same substance?
**A.** 38 nM

**Q.** What about the koff [2] of the same substance?
**A.** 0.0025 s⁻¹

**Q.** And the τ1/2 [2]?
**A.** 280 s

**Q.** And the τ1/2 [5]?
**A.** 16 s

**Q.** And the fold increase in affinity [3]?
**A.** 25 fold
